Assay: soluble on expression in E. coli; label from the status in PepcDB or PDB records
With “GPGSMGVVLRELRMRQESATFLLAAVSVNPLLRCAWEDLACLVSRETQLAELDAALDGLEPFFMVDIFAAEVRGLLGVTPVSSARLRIAAAAASAPSDGFEPSPPCSAPPEGHAATTTATAAKAGTRTSPLLPPPRTNAGATPPIPAAALSNAWECFSLLFPDTPFCLSQLAHFYYHQRNRLDRAEALYQRIRALDPHYLAILYDYSNVLYTKRDRLGLSSLAQSVYQADAFRAETNFAVGNYYVLLGQHDRAALHFHRATAIDPQCAEAWLLLGHAYVEVKNTTAAVEAYRTAVELNERDYRGWYNLGQIYELLEAYHHALYYYWHTTSLRPADPGMWVAVANCLEHDGRIAESIACLERAETYDSSSSPSYPAYVRRIATHHIANSSYTRACVYLEKLAQSPAASTEDLLLALPFIVQHYVQRARSSVEGFARSSSYDTVLFSPGANNVSLMSSPASGAVAAGRTALHHARAAAALQHLNKAEEHLSTMAELVMPSGHNGAGNEEAAQTPATSAAAGESEQGGAENTAPQRAAEDAPHRRRTRQPRSGAAANASVSASASAALAAVAASTAPSAGDVPPVAFVRSRHQEIGMLRAQAMHLLQIGAGASGSTIPVAASASASVATQPSSSSSQQQQQQQQQRHQQHRNPFVSQLLGRYQ” the “soluble on expression in E. coli” value was “not soluble”. With “GPGSMHPRLSGQGVFPRYGGGWMHQFGHVYALQQELLNAEANNWFRAMELWHTARHEGVAMNVSHYTNILRQCVPPTAWEASLMVLKQMRRENIRPDVVGVGCALAACADANRSEEVEKVFSCFSGKLKLDSICYLALIKAKMSRGGYAEALAVGREQDADGVPFLPHTYTHLLEAAEVADDGEMALELARRMSSEQWPVSDRGREALKKLSTRHHWEEVAEYKQFVAVEDHKLSLPPTLPRG” the “soluble on expression in E. coli” value was “not soluble”. With “GPGSMIMKASGAAVLHAVREKMQEATVAALIVTSSDAHNSEYVATHLQSRAFISHFQGSAGTALITMEKALLWTDGRYWLAAEEEKYPEFDLMKQGQPEVPSLEEWIAANLGSKAVVGMSPYVATVAEWERLSKKINLRPVANIVQDMMPPEKSVRKMYVRPAEFCGATCQERRAAILAELEKKDCDMIILSALDEIAWFTNLRGGDVDYNPVFYAYAVIDKHYENVRLYVNLDKVTDAVRQACEDHIDFYPYEQFEADLKQLPRGRKALVDERQTSEAVFRILKDVGTVTVRVVCGPAQKLKAIKNEVELKGFRDCHVRDGAALTRYLAWLHDQVANKGVTDLNEYDAATKLEEFRAQGEHFVQLSFGSISSIGPNGAMCHYSPAETGSAAIRRDQLYLIDSGAHYWDGTTDVTRTICFTAPSDEQREAYTLVLKGHIALNSIIFPKGTSGVRLDTLARMALWGVGLDYAHGTGHGVGSFLNVHEGPHGISTRPVATGANMELHSIVSNEPGYYKDGHYGIRIENLEEVVECRTKYSATGFYTMSHLTMAPLCRDLIDVSLLTETERAWVDRYHAKVVASIMPHLQQAGDQNAVEYLKYHTRPLFAVNEAYTLLSPDGKGAK” the “soluble on expression in E. coli” value was “not soluble”. In the case of “GPGSMKEIILYTRPNCPYCKRARDLLDKKGVKYTDIDASTSLRQEMVQRANGRNTFPQIFIGDYHVGGCDDLYALENKGKLDSLLQDVH”, the “soluble on expression in E. coli” value is reported as “soluble”. In the case of “GPGSMLALSQGLPTVDPALVKAFKRAANNASTSGDVDDDSRRQEVARINKEAQKAWRAEEKSFIPAIYLRTRDPSAEDVLQHLRVTSKAFELNLRFRDIEQLDEMQVKLWSLLTADKSKQTVTISEFTEIMNKLKVWQGQRFEPTPKTSPCREISVRSAQQECPVDTTPLDEVMYVGVAKRPRPSLQLFLSCPRSHAGGVEVAHIYQRFAKQVSLVKCEAELLMWDTNNDGRLTEDELESYVRDLVSRVDALRDISNDILPFYCCAVSRRIFWALDPGMRGTIRIDALLQSPLMDEWVSLQLMREDLPRNWFSAAITSHLYDKFLLLDTRNQGTLNAANMKLYKKGLPTVRDDGLPRGVGPLSSLFIDRFFETSVMMACSELDFRKFVDFVIAVEFLPACQRPLFFWNILDIEGCGVLRPVHVNSFFRETHSKLVEAGLEMPSRETVVQEVFDLIPTAEPLRITREEFVKAPQAGLFVALLIDCLSFWAYENREQR”, the “soluble on expression in E. coli” value is reported as “not soluble”. In the case of “GPGSMPAKKKEVKVDEPLFVDEEGSYVHEAEGARYKGGVRRYAPPGGTDAGGTAAPPAKNSRSRSTSSPGKGGATPPPSAAAGAAASMAVVSDAPVFRHGRGVYTCPSFTYAGDWVEDEMHGSGQLTFVESGNIYEGEFSHGCFSGQGTYQWRDGALYCGQWRSNRMHGEGIYTDVQGHVWKGRYYNGTGPGLIRLYPTLERVDDAGPSSPGPDATNAAATVANS”, the “soluble on expression in E. coli” value is reported as “soluble”. With “GPGSMPNPLVRLGKELKEATEHPDPDIHLELYDPTKGSDGSRSSQGAALQPSQQQPGLYTWLAILKGPPDTPFAGGSYRLVLSIPHEYPLVPPKAAFITKVFHPNVEFNTGNVCLDILKKRWSPVWTLSSVCRAILNLLAEPESDSPFNCDAGNLLRAGDMEGYASLVRYYAITDAGAPPFADNEE” the “soluble on expression in E. coli” value was “not soluble”. For “GPGSMPTRPLLVKYETPVLLSEVKHKKALKEKKRVAVGAQSGPQAEDVLYSIIPPREFEENGQQWVQYVSSIPATRMDVINLQERLDSLLLERNARETGICPVREELYSQVFDELIRQVTVNCAERGLLLLRVRDELRMTLDAYRSLYESSAAYGMRKALQAEQSKIEMESKIQALEREKEELKQQVEELEYRCESIIQQEKEKFAEAERKHNEEVAFFRRTYQTLTTNLQTLCNATKA”, the “soluble on expression in E. coli” value was “soluble”. For “GPGSMRRLFPTAKLLGSTTGIRLASMKSSDKERLERLVEEVNGIKSKLKVLEESKAANGLVDLYASRKMKRLDIKRILGIFNDRAYHAPIFCHKALPIILAHFITGLDRLPSGLNAMPSILAVRATLLRSFQKLINCKIPATDDQVQHFRRVLEDIDEEHAERNLLQTMAFGILELKEYVSSHRRALVDLKKTSERWASIPMTEENVLTYAEIQDIQAPLDSVNRCMITYNFISRMFLNHDPDMTMSSNPRRIGMVDLEMNLEHVVRNAVDEAKQICTDHYGDCPDTEFELTSDTKAFRFPYMSTTIRYIILELMKNAFRATVDSHMKRNDVGMVTCADMPPVRVLINLQEGTEHACICISDEGMGMTDEALTMAMAYSYTSVSKPALQLGESGERCASTAPSPLAGYGYGLPMSRVYAQSLGGDLLLQTMEGYGTRAYYYIKIADAQPLCDEETK”, the “soluble on expression in E. coli” value was “soluble”. With “GPGSMRSAVTCIKSPGAALFTDTATCRTITLSRPDALNVMSLPMVQDLHRLYITEPHPNEDAVYVVRGDGRRSFCAGGDLKALTGPERDTHNPLFYRLEYEVDSHIAVMRRTQVAMWAGHVLGSGVGVSVHSRYRVACETTRFAMPETQIGGANDVATSWVFSSLPICGLGMYLAITGNALQGADVFHAGLATHYIPVEKFGAVEAALAALPSSEGVEECLRGFSEDVAVPPFTLAESAPVLAKAFGTITPWTRLRDIMDVLRADGSAFAASTLEVMERNSPLGMTLALENMKRQHTPGCNTVMESFRGDYTAIQTSIFADELAKGVEALFVTKEKRPQWTVESVDEVDVELVKQQFALTEGVRVSAGGKDGRACFGVFGCYRAQASPVG” the “soluble on expression in E. coli” value was “soluble”. For “GPGSMSAGGRETAPMNLLRRRNKDEINGDVNAAADRFRNRFEKATLEERKAATTTMVNEYYDLVTDFYEYGWGQNFHFAPRYAGETFFESLARHEYFLAARGGFMEGDHIVDVGCGVGGPARNIVRLTRCNVTGVNNNDYQISRARRHDALAGMSCKIDYVKTDFCNMSLADNTFDGAYAIEATCHAKDKVKCYSEVFRVIKPGTCFVLYEWCMTDKYNPNDEYHRTIKHRIELGDGLPEMETCKQVIEYMKEAGFVVEEAIDVISQFESSPIKSIPWYQPLVGDYSSLQGLRSTPIGRILTNIMCRVLEFVHLAPKGTYKATEVLEEAAESLVVGGQLGIFTPSFYIRARKPSKQA”, the “soluble on expression in E. coli” value was “not soluble”. In the case of “GPGSMSARPSVSVYSASSDSVVGTCPLPAVFTAPIRSDIVKFVHTNMAKNSRQAYAVNRLSGMNHSAHSWGTGRAVARIPRISGGGTSTSGAGAFGNMCRGGRMFAPTKIFRRWHRKINLHQKRFAVVSALAASSVPSLVMSRGHQIGNVPEVPLVVEDSIQGYEKTKEAMAFLKAIAAIDDVNRVNDSREIRAGRGKMRNRRYVARRGPMLVMPNNKGTRAFRNIFGLDLANVSALNLLHLAPGGHVGRFVIWTQSAFEQLDKIFGTFTEASAVKKGFTLPAPMLTNTDVTRIMQSEEVRRVLKPKKLQAKKASRFQTPTNGMKNRRLRLRLNPYVKRETAAAKGMRNVANRDARRKAKLARVTKAKKAATKSAKQ”, the “soluble on expression in E. coli” value is reported as “not soluble”. For “GPGSMSKGAVVLVLDITLPRAAALVEACNLCDRILTDKMIYAPSDEVSVILAGTEKSRSALYEQSVQARYNHITVAAELGPATSLTLAPIAATRAGVAVLPEGETVRPSIAEAYDFIDALQVAVAVLQARTSQKKYNRCIYFLTDARHEVRHKEDLLSLIDILQRDQVALVVIGFDFQALPAPADSQGEFNESTTVVPSAWAALDRKAQNERILAALCTELGPPSTLVSPAEALASLSLLRCRRIRQQPVLKVALRMGDVRLATQLFTLTQEERLPSLRRSTQDGVDVAQTIEYVVLGGVEERPCALAKEERVEAFFLGVDRISCSEADREAMRVKGPRALEAIGFVGEAEVEPYLLMGGTRALLPLAGDHAGQRGFNALVDAMASSRKAMLVRLVRTADAAPSLCVCFARTAGSSAAQRHLVLAPLPFAEDVRALRFSEYPELQFSAAEEQLMDELIDGLSVDDSVLAPHDTFNPVLQQYYATLRAKLSAMNVSAEKGNTKATSPEAAVPQLLPTLRGTSTDFFAEGSEVYEVVSAHRSALVSCATAFPYEDEADALLSGSRDAGRKGKPWYQDVAMTPSLIGPQAGSPPPAAQGSDGAPSTIAPAIAGGARCGGEADEASAGSHTASDANSISTVPHDTISGGVSFAITSVDPVGSFSMIVHHPAVTEAQLNKAKDDLSDVIWELLRSSIKDAIYRKCMACIMALRQFCVTQDDAAYYNDFLLKLEVVARQCSRDADFWVPYVVERKDGANVWPITAQECKSAALPDDTAAKAFLQKDRFDPAIAFDDTADDDDWLAEIQ”, the “soluble on expression in E. coli” value was “not soluble”. For “GPGSMSLLKGKEVEVTQDDQRRICIFARMHRRRKELTATITRLKEQAAKLSDASDELMIADGAMYLFGETFVAIDNDEAGEWLAKEQAQLQRDQETTEEELKLVESQLSDLKAKLYASLGSQVYLEDE”, the “soluble on expression in E. coli” value was “soluble”. In the case of “GPGSMSNAVSGVIDARWMRFLRECKQRELVAEIEVLRRTFEATLDRKKGFSTTLLEELSVAEEQCRHAFRSHMDVVSSLLQLHAARTKDLEADLDANVAEMQQDFEYERAELELKHMIEMDDLRLILDNMAAEAEMLEKKLQEETSEGHETAAEKMDEAMREMEADLNKVEDGLRGELDSRYKKFMSAAQANMKEYTAKCKEDQETTERIAAQLRKIEKLQSSVSSWRTNIARNAKEWEDRNAAIQAERDATLSHLKKLKDKMQRWRELQSKALVELVKEANATEEALQATSKRAVRLLRLVELCKPMETEREQVLLHEANISSAAVEAETKRRVAAESSGNAQDDVLRGGDAAPAANEQWLSLDRFWVKHNKVVLDNAALTQERFLLEEENRVLQEVLKQYLDDVSISDQVMRQSNTLLLTQGANYNVVQAANASDNSVVRGYNVIEGNKFVNDQSRQAISH”, the “soluble on expression in E. coli” value is reported as “not soluble”. For “GPGSMTALSLALGIHDQATTKFGSKDFCDAVEAEAAAANAHQYRMFLLAMETLLQRQWEHYCFHGGNHITKSQQLEEKRLCRYFSVHCMNMEGRGCRDERKHRKLFGSGAAGPLIDFIYRLICHSHCSIECYPITLALTGRFFVEMRKESVATEYEAAVDHLPCVFAVLLLITAKYRDDNFRSNRYFSQLAELSLMEWNALERLVIRVLRFNVNVPFYEYVAYEKLLLKEMMRQEEKKCGFPSIDQSPRSEKMESLMHLDSKNDMSMLFFDHVEMAMKDNASFHSCGVTASSPSLRSQCPLMSVEDSPVSWRQGV”, the “soluble on expression in E. coli” value was “not soluble”.
